Assay results published in paper PMC11879086, “Identification and characterization of a human MORC2 DNA binding region that is required for gene silencing” (Nucleic Acids Research, 2024).

How the values were obtained:
MORC2 aspartate mutant = biological target: T1, MORC2 aspartate mutant (Homo sapiens, UniProt Q9Y6X9 1-1032, K704D;R707D;K713D;K716D;K721D;K722D;R754D;R755D;K756D;R758D;K760D;R761D); assay: fluorescence anisotropy; apo; FA/EMSA: 50 mM NaCl, 3 mM MgCl2, 20 mM Na-HEPES pH 7.4, 1 mM TCEP, 10% glycerol, 0.025 mM ZnCl2, 50 ug/ml BSA, room temperature; 1 nM nucleic acid (FA) or 20 nM DNA (EMSA); conditions: protein: recombinant; tags: tag removed by TEV; chain copies: 2; label: 5'-6-FAM; blunt
T1 sequence: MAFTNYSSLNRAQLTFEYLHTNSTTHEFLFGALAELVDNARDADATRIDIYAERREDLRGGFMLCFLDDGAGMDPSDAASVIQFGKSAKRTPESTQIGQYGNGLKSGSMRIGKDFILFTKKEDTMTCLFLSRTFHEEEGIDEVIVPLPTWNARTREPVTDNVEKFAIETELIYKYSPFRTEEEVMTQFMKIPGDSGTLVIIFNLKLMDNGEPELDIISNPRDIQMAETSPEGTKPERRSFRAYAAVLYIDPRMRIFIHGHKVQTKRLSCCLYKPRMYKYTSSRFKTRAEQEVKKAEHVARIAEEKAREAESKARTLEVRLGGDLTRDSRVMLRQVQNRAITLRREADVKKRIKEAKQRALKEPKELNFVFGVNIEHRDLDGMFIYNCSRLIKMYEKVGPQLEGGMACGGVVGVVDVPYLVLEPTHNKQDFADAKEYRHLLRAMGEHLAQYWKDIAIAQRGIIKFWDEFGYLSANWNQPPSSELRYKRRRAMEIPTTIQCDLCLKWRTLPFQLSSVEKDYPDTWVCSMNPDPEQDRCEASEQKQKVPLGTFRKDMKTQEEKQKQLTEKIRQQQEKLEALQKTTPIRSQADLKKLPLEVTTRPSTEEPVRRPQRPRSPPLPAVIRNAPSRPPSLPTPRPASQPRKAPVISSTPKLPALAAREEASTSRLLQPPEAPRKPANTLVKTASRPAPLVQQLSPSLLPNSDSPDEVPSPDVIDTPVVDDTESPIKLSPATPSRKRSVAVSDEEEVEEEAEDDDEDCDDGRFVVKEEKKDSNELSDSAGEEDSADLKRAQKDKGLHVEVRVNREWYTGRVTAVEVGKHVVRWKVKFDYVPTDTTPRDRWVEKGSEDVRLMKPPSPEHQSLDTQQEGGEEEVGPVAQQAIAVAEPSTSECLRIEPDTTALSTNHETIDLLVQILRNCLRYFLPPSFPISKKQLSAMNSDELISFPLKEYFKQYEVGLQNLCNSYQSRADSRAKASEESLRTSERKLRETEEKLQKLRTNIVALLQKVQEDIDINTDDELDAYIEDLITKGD

[1] = biological target: T2, MORC2 dephosphorylated (wild-type) (Homo sapiens, UniProt Q9Y6X9 1-1032); assay: as above; conditions: protein: recombinant; tags: tag removed by TEV; chain copies: 2; label: 5'-6-FAM; blunt
T2 sequence: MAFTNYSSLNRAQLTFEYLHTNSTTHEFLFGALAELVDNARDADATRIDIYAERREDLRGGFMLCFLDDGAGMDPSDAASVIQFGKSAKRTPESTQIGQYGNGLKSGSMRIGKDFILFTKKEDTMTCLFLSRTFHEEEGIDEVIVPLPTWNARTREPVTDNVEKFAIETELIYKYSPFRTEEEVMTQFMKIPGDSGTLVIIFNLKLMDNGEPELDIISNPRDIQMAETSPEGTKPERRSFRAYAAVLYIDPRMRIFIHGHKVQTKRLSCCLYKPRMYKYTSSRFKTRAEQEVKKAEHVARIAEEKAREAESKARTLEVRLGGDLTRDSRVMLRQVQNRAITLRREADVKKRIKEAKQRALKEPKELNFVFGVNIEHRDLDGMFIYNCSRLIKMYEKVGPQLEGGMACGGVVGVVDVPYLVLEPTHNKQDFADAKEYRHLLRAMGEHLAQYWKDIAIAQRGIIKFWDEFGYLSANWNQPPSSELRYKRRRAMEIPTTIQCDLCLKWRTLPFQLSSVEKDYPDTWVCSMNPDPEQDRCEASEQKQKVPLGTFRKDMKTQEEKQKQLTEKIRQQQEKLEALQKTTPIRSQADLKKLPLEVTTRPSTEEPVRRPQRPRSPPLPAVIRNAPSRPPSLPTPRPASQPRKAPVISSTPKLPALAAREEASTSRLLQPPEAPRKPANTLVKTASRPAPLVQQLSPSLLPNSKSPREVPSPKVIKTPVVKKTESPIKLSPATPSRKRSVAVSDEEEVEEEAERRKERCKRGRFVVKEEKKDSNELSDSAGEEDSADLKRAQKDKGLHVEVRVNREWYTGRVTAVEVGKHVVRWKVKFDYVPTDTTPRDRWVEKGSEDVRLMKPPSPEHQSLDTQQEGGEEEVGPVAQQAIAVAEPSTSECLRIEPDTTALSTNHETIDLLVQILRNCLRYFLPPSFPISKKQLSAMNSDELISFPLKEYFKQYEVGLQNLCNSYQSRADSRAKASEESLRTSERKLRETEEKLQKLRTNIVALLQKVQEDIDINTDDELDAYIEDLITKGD

B1: Random 35mer dsDNA (dsDNA)
DNA 1: ATAGGGTCCATCAGAATTCGGATGAACTCGGTGTG
DNA 2: CACACCGAGTTCATCCGAATTCTGATGGACCCTAT
B1 was tested. Which Kd (MORC2 aspartate mutant) did it give?
Its Kd is 380 ± 120 nM.

What about the Kd [1] of the same binder?
Its Kd is 17 ± 4 nM.
